In paper PMC12859517:

How the values were obtained:
[1] = target: Full-length MctBsm (MctB of M. smegmatis) (M. smegmatis)
[2] = target: Full-length MctBsm (MctB of M. smegmatis) (M. smegmatis); assay: SDS-PAGE under mild conditions with Western blot; 0.1% SDS in loading buffer, no reducing agent, not boiled, run in an ice bath; protein purified in OPOE; gel slices eluted with OPOE and run again

Full-length MctBsm (MctB of M. smegmatis) (natural protein)
channel insertions in lipid bilayer experiments (DphPC, 1 M KCl, 10 mM Hepes pH 7.0, 100 mV), purified MctBsm before fractionation [1]: 20 pS
stoichiometry N [2]: > 2
